Experimental data reported in patent US20050164185A1 (YEDA RESEARCH AND DEVELOPMENT CO LTD AT WEIZMANN INSTITUTE …, published 2005).
Residue numbers refer to the chain shown, from its start. Names may count otherwise.

T1: wild type IFNAR2-EC (extracellular domain of human IFNAR2) (human, UniProt P48551 28-237)
T1 construct: Expressed in E. coli, non-glycosylated; also called wt; WT protein
T1 sequence: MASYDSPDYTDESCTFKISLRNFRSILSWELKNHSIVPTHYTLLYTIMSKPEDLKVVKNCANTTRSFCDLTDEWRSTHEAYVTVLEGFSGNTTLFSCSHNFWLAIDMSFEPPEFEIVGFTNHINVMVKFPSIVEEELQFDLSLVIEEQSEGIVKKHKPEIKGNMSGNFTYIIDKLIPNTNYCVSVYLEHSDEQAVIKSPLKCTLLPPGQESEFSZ

B1: IFNAR2 EC H78A/N100A mutant (receptor)
chain: T1 sequence with H78A, N100A
notes: also called R2 H78A/N100A; MIFNAR2 EC
B2: interferon beta (wild type, glycosylated, produced in CHO) (ligand, human, UniProt P01574 22-187, looked up)
chain: MSYNLLGFLQRSSNFQCQKLLWQLNGRLEYCLKDRMNFDIPEEIKQLQQFQKEDAALTIYEMLQNIFAIFRQDSSSTGWNETIVENLLANVYHQINHLKTVLEEKLEKEDFTRGKLMSSLHLKRYYGRILHYLKAKEYSHCAWTIVRVEILRNFYFINRLTGYLRN
modifications: glycosylated (site not stated)
notes: also called IFNβ; IFN-β
B3: IFNAR2 EC H78A/N100D mutant (receptor)
chain: T1 sequence with H78A, N100D

Legend:
[1] = biological target: B2; assay: RifS, IFNAR2-EC immobilised through antibodies, 500 mM NaCl, pH 7.4
Method: (§1) All thermodynamic and kinetic data were obtained from label-free heterogeneous phase detection. […] This technique is similar to Biacore and is used to accurately measure affinity of binding between two proteins.
(§2) Association and dissociation kinetics were measured by standard injection protocols and corrected by blank runs. Dissociation rate constants were measured at IFN concentration in the range of 1-1000 nM in order to saturate the surface.

[2] = biological target: B2; assay: RifS, IFNAR2-EC immobilised through antibodies
Method: as §1, §2

[3] = biological target: T1, wild type IFNAR2-EC (extracellular …); assay: RifS, IFNAR2-EC immobilised through antibodies, 500 mM NaCl, pH 7.4
Method: as §1, §2

[4] = biological target: B2; assay: cell-based or functional assay

Binder: B1
- Kd [1]: ~0.03 nM
- fold higher affinity than wild type [2]: ~100 fold

Binder: B2
- Kd [3]: ~3 nM

Binder: B3
- IC50 (read off the curve) [4]: ~0.4 nM
